From patent US20260199443A1, “HISTONE DEACYTLASE 6 MODULATION OF TITIN PROTEIN MEDIATED CARDIAC TISSUE STIFFNESS AND METHOD FOR SAME” (The Regents of the University of Colorado, a Body Corporate, priority 2019, published 2026)
“Also recorded” adds a separate entry of the source. Read-outs that look alike come from different tables or passages of the source.

Legend:
rat myofibrils (titin) = assay: Ex vivo incubation of purified rat myofibrils with recombinant enzyme, then myofibril mechanics; settings: 30 minutes
Method: (§1) Myofibril mechanics were quantified using the fast solution switching technique (47). Frozen LV sections were skinned in 0.5% Triton-X in rigor solution (132 mM NaCl, 5 mM KCl, 1 mM MgCl2, 10 mM Tris, 5 mM EGTA, pH 7.1) containing protease inhibitors (10 μm leupeptin, 5 μm pepstatin, 200 μm PMSF and 10 μm E64), as well as 500 μm NaN3 and 500 μm DTT at 4° C. overnight. Skinned LVs were washed in fresh rigor solution and homogenized (Tissue-Tearor, Thomas Scientific) in relaxing solution (pCa 9.0) containing protease inhibitors. […] Average sarcomere lengths and myofibril diameters were measured using ImageJ software. […] Data were collected and analyzed using customized Lab View software. Measured mechanical and kinetic parameters were defined as follows: resting tension (mN/mm^2)=myofibril basal tension in fully relaxing condition; maximal tension (mN/mm^2)=maximal tension generated at full calcium activation (pCa 4.5); the rate constant of tension development following maximal calcium activation=kACT; and relaxation parameters were defined as: duration of the linear relaxation=linear duration, and the rate constant of exponential relaxation=fast kREL. For, myofibril resting tension-to-sarcomere length curves, each myofibril was stretched incrementally to determine the resting tension at different sarcomere lengths, and a resting tension-sarcomere length relationship was measured. […]

[1] = system: diastolic dysfunction in murine models; settings: murine models of hypertension and aging, reference (21); cited from earlier work
[2] = system: adult rat ventricular myocytes (ARVMs); assay: Myofibril resting tension after 24 hour treatment of cultured ARVMs; assay type: cell-based; settings: myofibrils isolated from ARVMs treated for 24 hours
[3] = system: myofibrils from non-failing human LVs; assay: Ex vivo treatment of human myofibrils with recombinant PKCα, with or without subsequent recombinant HDAC6, then myofibril mechanics
Method: Myofibril mechanics were quantified using the fast solution switching technique (47). Frozen LV sections were skinned in 0.5% Triton-X in rigor solution (132 mM NaCl, 5 mM KCl, 1 mM MgCl2, 10 mM Tris, 5 mM EGTA, pH 7.1) containing protease inhibitors (10 μm leupeptin, 5 μm pepstatin, 200 μm PMSF and 10 μm E64), as well as 500 μm NaN3 and 500 μm DTT at 4° C. overnight. Skinned LVs were washed in fresh rigor solution and homogenized (Tissue-Tearor, Thomas Scientific) in relaxing solution (pCa 9.0) containing protease inhibitors. Myofibril suspensions were transferred to a temperature controlled chamber (15° C.) containing relaxing solution (pCa 9.0; 100 mM Na2EGTA; 1 M potassium propionate; 100 mM Na2SO4; 1 M MOPS; 1 M MgCl2; 6.7 mM ATP; and 1 mM creatine phosphate; pH 7.0). Myofibril bundles were mounted between two micro-tools. One tool was connected to a motor that could produce rapid length changes (Mad City Labs). The second tool was a calibrated cantilevered force probe (7-10 μm/μN; frequency response 2-5 KHz). Myofibrils were set 5-10% above slack myofibril length. Average sarcomere lengths and myofibril diameters were measured using ImageJ software. Mounted myofibrils were activated and relaxed by rapidly translating the interface between two flowing streams of solutions of different pCa. Data were collected and analyzed using customized Lab View software. Measured mechanical and kinetic parameters were defined as follows: resting tension (mN/mm^2)=myofibril basal tension in fully relaxing condition; maximal tension (mN/mm^2)=maximal tension generated at full calcium activation (pCa 4.5); the rate constant of tension development following maximal calcium activation=kACT; and relaxation parameters were defined as: duration of the linear relaxation=linear duration, and the rate constant of exponential relaxation=fast kREL. For, myofibril resting tension-to-sarcomere length curves, each myofibril was stretched incrementally to determine the resting tension at different sarcomere lengths, and a resting tension-sarcomere length relationship was measured. […]

[4] = system: WT mouse left ventricle myofibrils (titin); assay: Ex vivo treatment of WT mouse LV myofibrils with recombinant HDAC6, then myofibril mechanics; settings: 30 minutes, listed as rHDAC6
Method: as §1

[5] = system: human myofibrils from non-failing donor left ventricle (titin); assay: Ex vivo treatment of human LV myofibrils with recombinant HDAC6, then myofibril mechanics
Method: as §1

[6] = system: myofibrils from mice lacking the PEVK region of titin; assay: Ex vivo treatment of PEVK KO mouse LV myofibrils with recombinant HDAC6, then myofibril mechanics; settings: 30 minutes
Method: as §1

[7] = system: PKC-driven phosphorylation of sacromeric proteins; assay: Immunoblot with anti-PKC substrate antibody of treated human myofibril proteins; assay type: biochemical; settings: human myofibrils, PKCα followed by HDAC6
Method: FIG. 3E is an immunoblot performed with an anti-PKC substrate antibody and solubilized proteins from myofibrils treated as indicated in the protocol illustrated in FIG. 3B.
Elevated PEVK phosphorylation is s associated with increased cardiomyocyte passive stiffness in pre-clinical models and in human heart failure (7). To begin to address the therapeutic potential of HDAC6 gain-of-function, an ex vivo experiment was performed to determine whether HDAC6 is capable of overriding the cardiac stiffening effect of PKC. Myofibrils obtained from non-failing human LVs were pretreated with recombinant PKCα, washed, and then incubated with recombinant HDAC6 (FIG. 3B).

HDAC6 = biological target: T1, HDAC6 (Rattus norvegicus, UniProt A0A8I6GM68); assay: Tubulin acetylation in treated ARVMs as a marker of HDAC6 inhibition (immunofluorescence, immunoblot); assay type: cell-based; settings: ARVMs treated for 24 hours
T1 construct: endogenous in cells; host or cells: adult rat ventricular myocytes (ARVMs) from Sprague Dawley rats
Description: FIG. 1K are images of immunoblot analysis of acetyl-tubulin and total tubulin in whole-cell homogenates from treated ARVMs.

T1 sequence (A0A8I6GM68 whole entry): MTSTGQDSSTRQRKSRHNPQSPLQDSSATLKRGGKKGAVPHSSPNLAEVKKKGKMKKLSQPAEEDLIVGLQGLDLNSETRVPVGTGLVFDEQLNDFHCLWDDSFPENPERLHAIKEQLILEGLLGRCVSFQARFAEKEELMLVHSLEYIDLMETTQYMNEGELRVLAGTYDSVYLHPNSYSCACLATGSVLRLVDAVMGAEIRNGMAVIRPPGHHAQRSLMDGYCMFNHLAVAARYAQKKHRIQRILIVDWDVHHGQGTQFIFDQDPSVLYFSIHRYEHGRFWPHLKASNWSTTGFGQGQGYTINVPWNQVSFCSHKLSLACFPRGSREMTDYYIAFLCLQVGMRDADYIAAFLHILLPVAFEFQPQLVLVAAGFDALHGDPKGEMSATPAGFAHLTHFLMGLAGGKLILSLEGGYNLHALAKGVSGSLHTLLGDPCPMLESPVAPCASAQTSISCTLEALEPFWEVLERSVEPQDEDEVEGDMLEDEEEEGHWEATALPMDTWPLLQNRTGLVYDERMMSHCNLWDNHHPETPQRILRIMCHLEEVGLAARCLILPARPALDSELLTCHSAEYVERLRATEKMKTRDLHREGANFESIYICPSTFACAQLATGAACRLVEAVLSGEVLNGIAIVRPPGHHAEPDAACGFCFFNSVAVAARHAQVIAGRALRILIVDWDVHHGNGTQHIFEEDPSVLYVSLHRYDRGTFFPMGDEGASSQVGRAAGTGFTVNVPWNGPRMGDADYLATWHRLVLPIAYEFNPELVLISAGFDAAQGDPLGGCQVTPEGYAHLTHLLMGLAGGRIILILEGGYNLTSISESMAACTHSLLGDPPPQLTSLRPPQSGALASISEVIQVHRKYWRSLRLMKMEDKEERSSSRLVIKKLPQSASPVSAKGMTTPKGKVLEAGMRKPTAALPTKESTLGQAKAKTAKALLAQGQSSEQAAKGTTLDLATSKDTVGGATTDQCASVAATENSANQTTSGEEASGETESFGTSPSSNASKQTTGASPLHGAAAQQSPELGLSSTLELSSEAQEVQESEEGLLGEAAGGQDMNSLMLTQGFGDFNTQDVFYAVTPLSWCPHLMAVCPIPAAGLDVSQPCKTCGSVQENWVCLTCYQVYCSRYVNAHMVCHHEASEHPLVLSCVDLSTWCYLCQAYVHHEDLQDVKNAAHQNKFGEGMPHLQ

## HDAC2: recombinant HDAC2 used as control in the ex vivo myofibril assay
Rat myofibrils (titin)
  titin stiffness / myofibril compliance: not

## CCN(CC)Cc1ccc2cc(COC(=O)Nc3ccc(C(=O)NO)cc3)ccc2c1 [givinostat, [6-(diethylaminomethyl)naphthalen-2-yl] methyl N-[4-(hydroxycarbamoyl)phenyl] carbamate]
[1]
  diastolic dysfunction: ameliorates rather than exacerbates diastolic dysfunction
[2]
  myofibril resting tension / myofibril stiffness: no effect

## PKCα: recombinant PKCα (0.066 U/μL, Millipore 14-484) with lipid activator
[3]; human myofibrils treated with recombinant PKCα alone
  myofibril resting tension at physiologic sarcomere length: dramatically increased

## recombinant HDAC6: recombinant HDAC6 (1 μg/μL, BPS Bioscience) used for ex vivo treatment of myofibrils
[4]
  myofibril compliance: increased compliance
Rat myofibrils (titin)
  titin stiffness / myofibril compliance: reduced titin stiffness; also recorded: increases myofibril compliance
[5]
  myofibril compliance / cardiomyocyte passive stiffness: increases myofibril compliance
[5]; listed as rHDAC6
  myofibril compliance / cardiomyocyte passive stiffness: conserved ability of this deacetylase to control cardiomyocyte passive stiffness
[6]
  response of myofibril stiffness to HDAC6: completely resistant
[3]; human myofibrils pretreated with recombinant PKCα, then recombinant HDAC6
  PKC-induced leftward shift in the sarcomere length-to-resting tension curve: largely blocked
[3]; human myofibrils pretreated with recombinant PKCα, washed, then incubated with recombinant HDAC6
  PKCα-induced stiffening (resting tension at physiologic sarcomere length): completely normalized
[7]
  PKC-driven phosphorylation of sacromeric proteins: without affecting

## CN1CCc2c(c3ccccc3n2Cc2ccc(C(=O)NO)cc2)C1 [tubastatin A]
HDAC6
  tubulin acetylation as a marker of HDAC6 inhibition: inhibited HDAC6 equivalently
[2]
  myofibril resting tension / myofibril stiffness: elevated resting tension; also recorded: dramatically increased resting tension
